Data taken from the supplement of paper PMC9170038.

System: MS2 coat protein
Test: apparent KD of MS2 coat protein; designed switch direction (-1 OFF switch, 1 ON switch): -1; higher = weaker reporter binding
Summary of the method: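 SNAP-549-labelled MS2 coat protein was titrated, doubling from 0.7 or 1.5 nM to 3 µM, over designed RNA switches transcribed on Illumina chips by stalled E. coli RNA polymerase. Runs were done without input, with 200 uM small-molecule ligand, or with an oligonucleotide input. Apparent KD is the per-design median over clusters of curve-fitted normalised fluorescence.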

[1] = Eterna round: R95, input ligand: FMN 200 uM
[2] = Eterna round: R95, input ligand: microRNA oligo, concentration not stated
[3] = Eterna round: R95, input ligand: none
[4] = input ligand: microRNA oligo, concentration not stated

Row | Sequence | apparent KD of MS2 coat protein [2] | apparent KD of MS2 coat protein (input ligand: FMN 200 uM) | apparent KD of MS2 coat protein (input ligand: none) | further results
1 | AAGAAACAUGAGGAUCACCCAUGUGAGGAUAUGAUCAAGAAAAGAAAAGAAAGAAGAUUCAGAAGGCACAAAGG [salish99-ex1_r3_056] (puzzle: Exclusion 1) | 160 nM |  |  | apparent KD of MS2 coat protein [1]: 124 nM; apparent KD of MS2 coat protein [3]: 362 nM
2 | AAAUAGUAGCAGGAUAUGAGUAUUAUUGGAAGCUCAGAAGGGCUGACAUGAGGAUCACCCAUGUGUUAUGUCGG [Eternabot (L1) Solution 54] (Eterna round: R97, puzzle: Exclusion 6) |  | 49.1 nM | 177 nM | 
3 | CAGUACUGAGGAUAUACAUGAGGAUCACCCAUGUGUUCGAGCUAGGAAACUAGCAAAAGUAGAAGGCAGUACUG [salish99_ex3_r3_080] (puzzle: Exclusion 3) | 15.4 nM |  |  | apparent KD of MS2 coat protein [1]: 85.2 nM; apparent KD of MS2 coat protein [3]: 14.9 nM
4 | UUAGUGUAAGGAUAUCCUAUUACGAAGUAGCAACGGUAGAGGGAGAAGGUACAUGAGGAUCACCCAUGUGUCGC [Eternabot (L2) Solution 38] (Eterna round: R97, puzzle: Exclusion 4) |  | 26.3 nM | 24.5 nM | 
5 | GACUAGGCAGGAUAUACAUGAGGAUCACCCAUGUGUCUGCGUUAAGCACGUGAAGACGGUAGAAGGGCCUUCAC [ChP 13.04.2015 #17] (puzzle: Exclusion 3) | 10.3 nM |  |  | 
6 | GCGGACUAGAUCGUGAGAUCAGAGACAUGAGGAUCACCCAUGUAGGAUAUCGAUUCGAAACGAAUCGAGAAGGGCAUAGUCCGC [JL denovo 7] (Eterna round: R96, puzzle: Exclusion NG 3) |  | 17.1 nM | 15.9 nM | apparent KD of MS2 coat protein [4]: 14.8 nM
7 | UCUCGACAUGAGGAUCACCCAUGUCAGGAUAUUGUGUUUUGGGUUUUUUACCUUUUGGCAAGAAGGGAUGUGUG [LRO-Excl1-20] (puzzle: Exclusion 1) | 20.4 nM |  |  | 
8 | AGUUGGCGAGGAUAUACAUGAGGAUCACCCAUGUGAAGAAGAAGAGUGAGGAAGAAAAGUAGAAGGCGCUGACA [Mat - Exclusion 3 - Mod of Salish D38] (puzzle: Exclusion 3) | 84 nM |  |  | apparent KD of MS2 coat protein [1]: 87.9 nM; apparent KD of MS2 coat protein [3]: 50.7 nM
9 | GGUUGGCGAGGAUAUACAUGAGGAUCACCCAUGUGAGAGAGAAAAGUGAGAACGAAAAGUAGAAGGCGCUGACG [salish99_ex3_r3_061] (puzzle: Exclusion 3) | 65.6 nM |  |  | apparent KD of MS2 coat protein [1]: 53.5 nM; apparent KD of MS2 coat protein [3]: 96.2 nM
10 | ACGCAUUGCCUUUGGUAGUGCGUUACAUGAGGAUCACCCAUGUAGGAUAUGGUAGGCUUUGCUUACCAGAAGGACAUGAUAAUU [JL ENG3 1.02] (Eterna round: R96, puzzle: Exclusion NG 3) |  | 195 nM | 37.4 nM | apparent KD of MS2 coat protein [4]: 29.1 nM
11 | GGUUAUUGCAAGGAUAUGCUUUUUUUUUAUAUUGCAGAAGGUGCAACAUGAGGAUCACCCAUGUUGGAGGGUUU [JR_E6_Sub022] (puzzle: Exclusion 6) | 26 nM |  |  | 
12 | GUCGUGCGGCUUUGCUGUACGAGUACAUGAGGAUCACCCAUGUAGGAUAUGGUUCGUUUUGCGUGCCAGAAGGGCGUGCGUUGU [Excl-NG3-LRO14] (Eterna round: R96, puzzle: Exclusion NG 3) |  |  |  | apparent KD of MS2 coat protein [4]: 15.1 nM
13 | CUUCGUAAUGUCAGGAUAUUUUCGAGGGCAACUCAAAAGAAGGGACAUGAGGAUCACCCAUGUGGCAACGUCAU [Eternabot (L2) Solution 83] (Eterna round: R97, puzzle: Brourd's mod of Exclusion 4) |  | 177 nM | 51.9 nM | 
14 | CCUCUACAUGAGGAUCACCCAUGUGAGGAUAUCUCGGAGCAGCCAAUUAAAGCGCUCCAGAGAAGGCACGUGUA [Inesraar] (puzzle: Exclusion 1) | 19.4 nM |  |  | 
15 | CCUGAUCCACAGGAUAUGCUCAUCUAAUGAUGAGCAGAAGGGUGGACAUGAGGAUCACCCAUGUUUAUCAAUGG [Omei Ex6 D4] (Eterna round: R97, puzzle: Exclusion 6) |  | 804 nM | 125 nM | 
